pKd: −log10 of the molar value. Read-outs that look alike come from different tables or passages of the source.
Experiments:
[1] = target: human norovirus HuNoV (GII.4), virus from a positive stool sample (human norovirus GII.4); experiment: BLI
[2] = target: human norovirus HuNoV (GII.4), virus from a positive stool sample (human norovirus GII.4); experiment: SPR
[3] = target: viral hemorrhagic septicemia virus (VHSV) genotype IVa; experiment: SPR
[4] = target: concanavalin A (Con A) isolated from Canavalia ensiformis (Jack bean) (Canavalia ensiformis); experiment: capture on a column of Con A-immobilised polyacrylate beads
[5] = target: concanavalin A (Con A) isolated from Canavalia ensiformis (Jack bean) (Canavalia ensiformis); experiment: as above; remark: listed apart in the source

Substance	virus recovery (%) [5]	also measured
concanavalin A (Con A) isolated from Canavalia ensiformis (Jack bean) (natural protein)		association, fold over the commercial HuNoV antibody [1]: 10 fold; pKd [2]: 7.15; pKd [3]: 6.15
human norovirus HuNoV (GII.4), virus from a positive stool sample (complex)	90.6%	HuNoV recovery (%) from lettuce [4]: 89.5%; HuNoV recovery (%) from milk [4]: 60.8%; HuNoV recovery (%) from strawberry [4]: 70.8%; virus recovery (%) [4]: > 90%
human norovirus HuNoV GI.3, virus from a positive stool sample (complex)	68.5%	
human norovirus HuNoV GI.8, virus from a positive stool sample (complex)	56.2%	
human norovirus HuNoV GII.2, virus from a positive stool sample (complex)	85.2%	
human norovirus HuNoV GII.6, virus from a positive stool sample (complex)	41.8%	
human norovirus HuNoV GII.8, virus from a positive stool sample (complex)	77.8%	
human norovirus HuNoV GII.17, virus from a positive stool sample (complex)	61.4%	

Source: article PMC7112440
